From IntAct's records for PubMed 19204291

B1: Programmed cell death protein 4 (Homo sapiens), Q53EL6 (parent)
chain: MDVENEQILNVNPADPDNLSDSLFSGDEENAGTEEIKNEINGNWISASSINEARINAKAKRRLRKNSSRDSGRGDSVSDSGSDALRSGLTVPTSPKGRLLDRRSRSGKGRGLPKKGGAGGKGVWGTPGQVYDVEEVDVKDPNYDDDQENCVYETVVLPLDERAFEKTLTPIIQEYFEHGDTNEVAEMLRDLNLGEMKSGVPVLAVSLALEGKASHREMTSKLLSDLCGTVMSTTDVEKSFDKLLKDLPELALDTPRAPQLVGQFIARAVGDGILCNTYIDSYKGTVDCVQARAALDKATVLLSMSKGGKRKDSVWGSGGGQQSVNHLVKEIDMLLKEYLLSGDISEAEHCLKELEVPHFHHELVYEAIIMVLESTGESTFKMILDLLKSLWKSSTITVDQMKRGYERIYNEIPDINLDVPHSYSVLERFVEECFQAGIISKQLRDLCPSRGRKRFVSEGDGGRLKPESY

Variants of: B1
Details: with if4a1_human EIF4A1, P60842
if4a1_human EIF4A1, P60842, sequence (P60842 whole entry): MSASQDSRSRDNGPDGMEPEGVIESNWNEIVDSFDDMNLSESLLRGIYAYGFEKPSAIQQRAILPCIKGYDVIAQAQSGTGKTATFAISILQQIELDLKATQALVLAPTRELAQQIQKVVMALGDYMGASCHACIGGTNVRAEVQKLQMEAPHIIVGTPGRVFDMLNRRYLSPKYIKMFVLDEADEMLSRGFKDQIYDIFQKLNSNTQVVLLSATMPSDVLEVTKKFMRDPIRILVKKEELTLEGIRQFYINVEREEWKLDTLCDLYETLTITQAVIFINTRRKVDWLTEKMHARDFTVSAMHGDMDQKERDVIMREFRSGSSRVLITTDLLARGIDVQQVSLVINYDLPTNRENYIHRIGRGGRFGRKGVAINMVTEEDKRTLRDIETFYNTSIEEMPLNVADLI

Variant	effect of a mutation on the interaction
MDVENEQILNVNPADPDNLSDSLFSGDEENAGTEEIKNEINGNWISASSINEARINAKAKRRLRKNSSRDSGRGDSVSDSGSDALRSGLTVPTSPKGRLLDRRSRSGKGRGLPKKGGAGGKGVWGTPGQVYDVEEVDVKDPNYDDDQENCVYETVVLPLDERAFEKTLTPIIQEYFEHGDTNEVAEMLRDLNLGEMKSGVPVLAVSLALEGKASHREMTSKLLSDLCGTVMSTTDVEKSFDKLLKDLPALALATPRAPQLVGQFIARAVGDGILCNTYIDSYKGTVDCVQARAALDKATVLLSMSKGGKRKDSVWGSGGGQQSVNHLVKEIDMLLKEYLLSGDISEAEHCLKELEVPHFHHELVYEAIIMVLESTGESTFKMILDLLKSLWKSSTITVDQMKRGYERIYNEIPAINLAVPHSYSVLERFVEECFQAGIISKQLRDLCPSRGRKRFVSEGDGGRLKPESY [E249A;D253A;D414A;D418A]	disrupting interaction strength
